Patent publication US5599789A, “Method for the treatment of tumours and sarcomas” (Amrad Corporation Limited, priority 1991, dated 1997)

Assays:
Type in all cases: cell-based, human
[1] = test system: Ewing's Sarcoma cell line Al-8; test: Colony formation in semi-solid agar cultures, Al-8 cells; details: Al-8, 1,000 cells; stimulus 100 ng; mean of duplicate colony counts, day 18
Method: (§1) Tumour cells obtained from biopsy and bone marrow specimens from patients with Ewing's Sarcoma were used in these studies. Approval for this project has been obtained from the Ethics Committee of the Royal Children's Hospital.
(§2) Single cell suspensions of tumour cells were obtained by mechanical disruption with an 18G or 21G needle or by pipetting, followed by incubation with dispase II (Boehringer) at a concentration of 1.2 units per ml for 10 minutes at 37° C. Prior to the addition to agar-medium the cells were vortexed gently to prevent clumping.
(§3) Clonal cell lines were grown in Iscove's Modified Dulbecco's Medium (IMDM) supplemented with 10% v/v foetal calf serum (FCS; CSL Limited, Melbourne, Australia) and were passaged either weekly or twice weekly. The characteristics of the Ewing Sarcoma cell lines used herein as described below:
(§4) Cell lines derived from the above primary cell lines (Al and Cu) are identified by an Arabic numeral (e.g. Al-1, Al-5, Al-8 or Cu-1).
(§5) The tumour cells were immobilised in 0.3% w/v agar containing Iscove's Modified Dulbecco's Medium (IMDM) and 10% v/v FCS. […] Cultures were scored for the presence of colonies (>40 cells) or clusters (<40 cells). The number of cells plated per culture ranged from 500 to 10,000 per ml. Colonies were counted on an Olympus dissecting microscope. […]

[2] = test system: Ewing's Sarcoma cell line Al (uncloned); test: Colony formation in semi-solid agar cultures, Al (uncloned) cells; details: Al(uncloned), 5,000 cells; stimulus 100 ng; mean of duplicate colony counts, day 18
Method: as §1, §2, §3
The tumour cells were immobilised in 0.3% w/v agar containing Iscove's Modified Dulbecco's Medium (IMDM) and 10% v/v FCS. […] Cultures were scored for the presence of colonies (>40 cells) or clusters (<40 cells). The number of cells plated per culture ranged from 500 to 10,000 per ml. Colonies were counted on an Olympus dissecting microscope.
IL-1, IL-3, IL-4, IL-6, M-CSF, G-CSF, GM-CSF, Stem Cell Factor (SCF), TNFα, TGFα, TGFβ, EGF, aFGF, bFGF, NGF, IGF I, IGF II, PDGF and IFN-γ. […]

[3] = test system: Ewing's Sarcoma cell line Cu-1; test: Colony formation in semi-solid agar cultures, Cu-1 cells; details: Cu-1, 10,000 cells; stimulus 100 ng; mean of duplicate colony counts, day 18
Method: as §1, §2, §3, §4, §5

[4] = test system: Ewing's Sarcoma cell line Al-1; test: Colony formation in semi-solid agar cultures, Al-1 cells; details: stimulus 100 ng, mean of duplicate colony counts, day 18
Method: as §1, §2, §3, §4, §5

B1: EGF: commercially available growth factor (protein, UniProt P01133 23-1207, looked up)
Pro-epidermal growth factor: PQHWSCPEGTLAGNGNSTCVGPAPFLIFSHGNSIFRIDTEGTNYEQLVVDAGVSVIMDFHYNEKRIYWVDLERQLLQRVFLNGSRQERVCNIEKNVSGMAINWINEEVIWSNQQEGIITVTDMKGNNSHILLSALKYPANVAVDPVERFIFWSSEVAGSLYRADLDGVGVKALLETSEKITAVSLDVLDKRLFWIQYNREGSNSLICSCDYDGGSVHISKHPTQHNLFAMSLFGDRIFYSTWKMKTIWIANKHTGKDMVRINLHSSFVPLGELKVVHPLAQPKAEDDTWEPEQKLCKLRKGNCSSTVCGQDLQSHLCMCAEGYALSRDRKYCEDVNECAFWNHGCTLGCKNTPGSYYCTCPVGFVLLPDGKRCHQLVSCPRNVSECSHDCVLTSEGPLCFCPEGSVLERDGKTCSGCSSPDNGGCSQLCVPLSPVSWECDCFPGYDLQLDEKSCAASGPQPFLLFANSQDIRHMHFDGTDYGTLLSQQMGMVYALDHDPVENKIYFAHTALKWIERANMDGSQRERLIEEGVDVPEGLAVDWIGRRFYWTDRGKSLIGRSDLNGKRSKIITKENISQPRGIAVHPMAKRLFWTDTGINPRIESSSLQGLGRLVIASSDLIWPSGITIDFLTDKLYWCDAKQSVIEMANLDGSKRRRLTQNDVGHPFAVAVFEDYVWFSDWAMPSVMRVNKRTGKDRVRLQGSMLKPSSLVVVHPLAKPGADPCLYQNGGCEHICKKRLGTAWCSCREGFMKASDGKTCLALDGHQLLAGGEVDLKNQVTPLDILSKTRVSEDNITESQHMLVAEIMVSDQDDCAPVGCSMYARCISEGEDATCQCLKGFAGDGKLCSDIDECEMGVPVCPPASSKCINTEGGYVCRCSEGYQGDGIHCLDIDECQLGEHSCGENASCTNTEGGYTCMCAGRLSEPGLICPDSTPPPHLREDDHHYSVRNSDSECPLSHDGYCLHDGVCMYIEALDKYACNCVVGYIGERCQYRDLKWWELRHAGHGQQQKVIVVAVCVVVLVMLLLLSLWGAHYYRTQKLLSKNPKNPYEESSRDVRSRRPADTEDGMSSCPQPWFVVIKEHQDLKNGGQPVAGEDGQAADGSMQPTSWRQEPQLCGMGTEQGCWIPVSSDKGSCPQVMERSFHMPSYGTQTLEGGVEKPHSLLSANPLWQQRALDPPHQMELTQ
modifications: Pro-epidermal growth factor
[1]
  Colonies/Cultures: 68
[2]
  Colonies/Cultures: 258
[3]
  Colonies/Cultures: 430
[4]; Al-1, 1,000 cells
  Colonies/Cultures: 41
[4]; Al-1, 10,000 cells
  Colonies/Cultures: 685
